Tests used:
[1] = system: HeLa Kyoto; assay: solubility change mitosis vs G1/S (difference of NP-40 vs SDS log2 ratios) (log2 ratio difference); higher = more soluble in mitosis
[2] = system: HeLa Kyoto; assay: solubility in G1/S (NP-40 vs SDS abundance) (log2 ratio); higher = more soluble; details: cell cycle stage: G1/S
[3] = system: HeLa Kyoto; assay: thermal stability score vs G1/S (z-score of summed log2 fold changes over temperatures); higher = more thermally stable than in G1/S
[4] = cell cycle stage: early G1 (4.5 h after nocodazole release)
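Wherever solubility change mitosis vs G1/S (difference of NP-40 vs SDS log2 ratios) is given: synchronized HeLa Kyoto cells (double thymidine block for G1/S, nocodazole release for mitosis), protein amounts in NP-40 versus SDS lysates quantified by mass spectrometry, three biological replicates.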
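Wherever solubility in G1/S (NP-40 vs SDS abundance) is given: HeLa Kyoto cells arrested at G1/S by double thymidine block, proteins quantified by TMT10plex mass spectrometry in mild NP-40 versus SDS extracts, three biological replicates.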
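Wherever thermal stability score vs G1/S (z-score of summed log2 fold changes over temperatures) is given: synchronized HeLa Kyoto cells, proteins quantified by TMT10plex mass spectrometry, three biological replicates, mitosis taken 0.5 h after nocodazole release, G1/S directly after double thymidine block.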

| Sequence | solubility change mitosis (log2) [1] | solubility in G1/S (log2) [2] | thermal stability score [3, 4] | thermal stability score ([3]; cell cycle stage: mitosis) |
| --- | --- | --- | --- | --- |
| MGFGSDLKNSHEAVLKLQDWELRLLETVKKFMALRIKSDKEYASTLQNLCNQVDKESTVQMNYVSNVSKSWLLMIQQTEQLSRIMKTHAEDLNSGPLHRLTMMIKDKQQVKKSYIGVHQQIEAEMIKVTKTELEKLKCSYRQLIKEMNSAKEKYKEALAKGKETEKAKERYDKATMKLHMLHNQYVLALKGAQLHQNQYYDITLPLLLDSLQKMQEEMIKALKGIFDEYSQITSLVTEEIVNVHKEIQMSVEQIDPSTEYNNFIDVHRTTAAKEQEIEFDTSLLEENENLQANEIMWNNLTAESLQVMLKTLAEELMQTQQMLLNKEEAVLELEKRIEESSETCEKKSDIVLLLSQKQALEELKQSVQQLRCTEAKFSAQKELLEQKVQENDGKEPPPVVNYEEDARSVTSMERKERLSKFESIRHSIAGIIRSPKSALGSSALSDMISISEKPLAEQDWYHGAIPRIEAQELLKKQGDFLVRESHGKPGEYVLSVYSDGQRRHFIIQYVDNMYRFEGTGFSNIPQLIDHHYTTKQVITKKSGVVLLNPIPKDKKWILSHEDVILGELLGKGNFGEVYKGTLKDKTSVAVKTCKEDLPQELKIKFLQEAKILKQYDHPNIVKLIGVCTQRQPVYIIMELVSGGDFLTFLRRKKDELKLKQLVKFSLDAAAGMLYLESKNCIHRDLAARNCLVGENNVLKISDFGMSRQEDGGVYSSSGLKQIPIKWTAPEALNYGRYSSESDVWSFGILLWETFSLGVCPYPGMTNQQAREQVERGYRMSAPQHCPEDISKIMMKCWDYKPENRPKFSELQKELTIIKRKLT [FER] | -0.106 | -0.0779 | -0.138 | -0.342 |
| MGFNLTFHLSYKFRLLLLLTLCLTVVGWATSNYFVGAIQEIPKAKEFMANFHKTLILGKGKTLTNEASTKKVELDNCPSVSPYLRGQSKLIFKPDLTLEEVQAENPKVSRGRYRPQECKALQRVAILVPHRNREKHLMYLLEHLHPFLQRQQLDYGIYVIHQAEGKKFNRAKLLNVGYLEALKEENWDCFIFHDVDLVPENDFNLYKCEEHPKHLVVGRNSTGYRLRYSGYFGGVTALSREQFFKVNGFSNNYWGWGGEDDDLRLRVELQRMKISRPLPEVGKYTMVFHTRDKGNEVNAERMKLLHQVSRVWRTDGLSSCSYKLVSVEHNPLYINITVDFWFGA [B4GALT4] | -0.14 | 0.167 | -0.773 | -0.781 |
| MGKRDNRVAYMNPIAMARSRGPIQSSGPTIQDYLNRPRPTWEEVKEQLEKKKKGSKALAEFEEKMNENWKKELEKHREKLLSGSESSSKKRQRKKKEKKKSGRYSSSSSSSSDSSSSSSDSEDEDKKQGKRRKKKKNRSHKSSESSMSETESDSKDSLKKKKKSKDGTEKEKDIKGLSKKRKMYSEDKPLSSESLSESEYIEEVRAKKKKSSEEREKATEKTKKKKKHKKHSKKKKKKAASSSPDSP [FAM133B] | 0.889 | -1.16 | -5.3 | -3.34 |
| MIPVSLVVVVVGGWTVVYLTDLVLKSSVYFKHSYEDWLENNGLSISPFHIRWQTAVFNRAFYSWGRRKARMLYQWFNFGMVFGVIAMFSSFFLLGKTLMQTLAQMMADSPSSYSSSSSSSSSSSSSSSSSSSSSSSLHNEQVLQVVVPGINLPVNQLTYFFTAVLISGVVHEIGHGIAAIREQVRFNGFGIFLFIIYPGAFVDLFTTHLQLISPVQQLRIFCAGIWHNFVLALLGILALVLLPVILLPFYYTGVGVLITEVAEDSPAIGPRGLFVGDLVTHLQDCPVTNVQDWNECLDTIAYEPQIGYCISASTLQQLSFPVRAYKRLDGSTECCNNHSLTDVCFSYRNNFNKRLHTCLPARKAVEATQVCRTNKDCKKSSSSSFCIIPSLETHTRLIKVKHPPQIDMLYVGHPLHLHYTVSITSFIPRFNFLSIDLPVVVETFVKYLISLSGALAIVNAVPCFALDGQWILNSFLDATLTSVIGDNDVKDLIGFFILLGGSVLLAANVTLGLWMVTAR [MBTPS2] | -0.109 | -0.23 | -0.0953 | -0.633 |
| MKAGATSMWASCCGLLNEVMGTGAVRGQQSAFAGATGPFRFTPNPEFSTYPPAATEGPNIVCKACGLSFSVFRKKHVCCDCKKDFCSVCSVLQENLRRCSTCHLLQETAFQRPQLMRLKVKDLRQYLILRNIPIDTCREKEDLVDLVLCHHGLGSEDDMDTSSLNSSRSQTSSFFTRSFFSNYTAPSATMSSFQGELMDGDQTSRSGVPAQVQSEITSANTEDDDDDDDEDDDDEEENAEDRNPGLSKERVRASLSDLSSLDDVEGMSVRQLKEILARNFVNYSGCCEKWELVEKVNRLYKENEENQKSYGERLQLQDEEDDSLCRICMDAVIDCVLLECGHMVTCTKCGKRMSECPICRQYVVRAVHVFKS [RNF34] | -0.0561 | 0.0303 | 0.687 | 0.834 |

Source: the supplement of paper PMC5998384
